Assay results published in patent publication US20100233191.

Columns and labels:
[1] = system: MPP5 (histidine-tagged modified proaerolysin with a PSA cleavage site)
[2] = system: wild-type proaerolysin from Aeromonas hydrophila
[3] = system: MPP1 (proaerolysin with the furin site replaced by the PSA substrate HSSKLQ)

Sequence of MMP-7 (P09237 95-267): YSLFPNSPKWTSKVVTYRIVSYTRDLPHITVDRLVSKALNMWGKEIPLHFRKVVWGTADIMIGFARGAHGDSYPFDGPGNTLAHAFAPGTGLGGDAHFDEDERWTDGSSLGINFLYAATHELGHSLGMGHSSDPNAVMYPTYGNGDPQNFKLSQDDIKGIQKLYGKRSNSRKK

Row | Substance | Amount Required for 50% Cleavage of MPP5 [1] | Specific Activity Towards MPP5 [1] | Amount Required for 50% Cleavage of Native Proaerolysin [2] | Specific Activity Towards Proaerolysin [2] | hemolysis (ratio to Triton control), MPP1 10^-8 M pre-incubated with PSA in buffer [3] | hemolysis, MPP1 in human plasma or plasma spiked with PSA (10,000 ng/ml) [3]
1 | Chymotrypsin | 31 µg | 150 nM/µg/min | 3 µg | 1550 nM/µg/min |  | 
2 | uPA | 173 µg | 1.1 fmol/µg/min | 7.79 µg | 25.8 fmol/µg/min |  | 
3 | Prostate-specific antigen (PSA), also referred as hK3 | 12.2 µg | 0.0635 nM/µg/min | 49.7 µg | 0.0156 nM/µg/min | about 45% hemolysis | no appreciable hemolysis (i.e. <1% of Triton control
4 | hK2 (human glandular kallikrein 2) | Inactive | 0 |  | 1610 fmol/µg/min |  | 
5 | Thrombin | > 12 µg | < 7.8e-07 nM/µg/min | > 12 µg | < 7.8e-07 nM/µg/min |  | 
6 | Furin | > 0.0032 µg | 0.24 nM/µg/min | 0.0012 µg | 9.69 nM/µg/min |  | 
7 | Cathepsin B (cysteine protease) | 170 units | 1.2 fmol/µg/min | 51.6 units | 3.9 fmol/µg/min |  | 
8 | hK1 (activated by thermolysin) | Inactive | 0 | 2.63 µg | 15.3 fmol/µg/min |  | 
9 | Trypsin (Type I trypsin) | 0.813 µg | 5700 nM/µg/min | 0.0095 µg | 489000 nM/µg/min |  | 
10 | MMP-7 | Inactive | 0 | Inactive | 0 |  | 
